This is an account of results in patent publication US20090280138A1 (OXFORD BIOMEDICA UK, published 2009).

Experiment [1] concerns the target T1, MHC class I molecule HLA-A*0301 (iTopia plate-bound monomer) (biotin (bound to streptavidin-coated plate)).
T1 construct: also called A3
Kind of experiment: iTopia off-rate assay, 37 C; fit R^2 0.77. The procedure, abridged: (§1)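 Using MHC-coated 96-well plates per the kit instructions, each nonamer is assessed twice and detected with an ELISA plate reader. Allele-specific positive controls run in parallel. A mono-exponential decay model constrained to a zero plateau yields the half-life, with r² reporting fit quality.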

In experiment [2] the target is T2, MHC class I molecule HLA-A*0201 (iTopia plate-bound monomer) (biotin (bound to streptavidin-coated plate)).
T2 construct: also called A2
Kind of experiment: iTopia off-rate assay, 37 C; fit R^2 0. As for the experimental part: (§2) The 9 mers were tested for Peptide Binding, Off Rate and Affinity using iTopia Epitope Discovery System in accordance with the manufacturer's instructions. Briefly, 96 well microtitre plates coated with MHC molecules representing different MHC alleles are used to identify candidate peptides. […] Determinations are performed in duplicate using an ELISA plate reader and included allele specific positive controls.
(§3) A one-phase exponential decay curve, with a plateau given equal to 0, was generated using GraphPad Prism® software, which calculated the t1/2 and goodness-of-fit, as measured by r², for each peptide.

Experiment [3] addresses T1, MHC class I molecule HLA-A*0301 (iTopia …). Put plainly: iTopia off-rate assay, 37 C; fit R^2 0.64. As for the experimental part: as §2, §3
Experiment [4] concerns the target T3, MHC class I molecule HLA-B*0702 (iTopia plate-bound monomer) (biotin (bound to streptavidin-coated plate)).
T3 construct: Commercial iTopia system; also called B7
Put plainly: iTopia off-rate assay, 37 C; fit R^2 0.82. As for the experimental part: as §2, §3

Experiment [5] addresses T2, MHC class I molecule HLA-A*0201 (iTopia …). Kind of experiment: iTopia off-rate assay, 37 C; fit R^2 0.42. The protocol:
as §2, §3

Experiment [6] shares this target. Put plainly: iTopia off-rate assay, 37 C; fit R^2 0.02. The protocol:
as §2, §3

Experiment [7] concerns the target T1, MHC class I molecule HLA-A*0301 (iTopia …). Put plainly: iTopia off-rate assay, 37 C; fit R^2 0.84. As for the experimental part: as §2, §3
Experiment [8] has the same target. Put plainly: iTopia off-rate assay, 37 C; fit R^2 0.87. Put shortly: as §1
In experiment [9] the target is T2, MHC class I molecule HLA-A*0201 (iTopia …). Kind of experiment: iTopia off-rate assay, 37 C; fit R^2 0.83. The protocol:
as §2, §3

In experiment [10] the target is T3, MHC class I molecule HLA-B*0702 (iTopia …). Kind of experiment: iTopia off-rate assay, 37 C; fit R^2 0.04. As for the experimental part: as §2, §3
Experiment [11] has the same target. Kind of experiment: iTopia off-rate assay, 37 C; fit R^2 0.76. The protocol: as §2, §3
The target in experiment [12] is T2, MHC class I molecule HLA-A*0201 (iTopia …). Put plainly: iTopia off-rate assay, 37 C; fit R^2 0.3. As for the experimental part: as §2, §3
Experiment [13] has the same target. Put plainly: iTopia off-rate assay, 37 C; fit R^2 0.11. As for the experimental part:
as §2, §3

Experiment [14] has the same target. Kind of experiment: iTopia off-rate assay, 37 C; fit R^2 0.72. The protocol: as §2, §3
The target of experiment [15] is T4, MHC class I molecule HLA-A*0101 (iTopia plate-bound monomer) (biotin (bound to streptavidin-coated plate)).
T4 construct: also called A1
Kind of experiment: iTopia off-rate assay, 37 C; fit R^2 0.18. As for the experimental part:
as §2, §3

The target of experiment [16] is T2, MHC class I molecule HLA-A*0201 (iTopia …). Put plainly: iTopia off-rate assay, 37 C; fit R^2 0.87. Put shortly:
as §1

Experiment [17] deals with T4, MHC class I molecule HLA-A*0101 (iTopia …). Kind of experiment: iTopia off-rate assay, 37 C; fit R^2 0.76. The protocol: as §2, §3
For experiment [18], the target named is T2, MHC class I molecule HLA-A*0201 (iTopia …). Put plainly: iTopia off-rate assay, 37 C; fit R^2 0.26. As for the experimental part:
as §2, §3

Experiment [19] shares this target. Kind of experiment: iTopia off-rate assay, 37 C; fit R^2 0.9. Put shortly: as §1
The target in experiment [20] is T3, MHC class I molecule HLA-B*0702 (iTopia …). Kind of experiment: iTopia off-rate assay, 37 C; fit R^2 0.94. The procedure, abridged:
as §1

For the molecule LLVLYLNRK (also called Peptide No 186) [5T4 9-mer peptide 186 LLVLYLNRK], the t½ half life in experiment [1] stood at 3.2 h; in experiment [2] it was 21.4 h.

For the molecule GLPHIRVFL (also called Peptide No 142) [5T4 9-mer peptide 142 GLPHIRVFL], the t½ half life is 6 h in [3], 0.9 h in experiment [4] and 12.9 h in [5].

On to LIGAIFLLV (also called Peptide No 183) [5T4 9-mer peptide 183 LIGAIFLLV], for which the t½ half life in experiment [6] was 19.4 h; in experiment [7], 0.5 h.

On to VLYLNRKGI [5T4 9-mer peptide 187 VLYLNRKGI], for which the t½ half life came out at 1.4 h in experiment [8], 0.6 h in experiment [9] and 2.9 h in [10].

The molecule YPEKMRNRV (also called Peptide No 163) [5T4 9-mer peptide 163 YPEKMRNRV] gave a t½ half life in experiment [11] of 1.9 h.

On to EKMRNRVLL [5T4 9-mer peptide 164 EKMRNRVLL], for which the t½ half life in experiment [12] was 7 h.

On to EVVQGKDRL [5T4 9-mer peptide 157 EVVQGKDRL], for which the t½ half life in experiment [13] is 11 h.

Consider LTCAYPEKM (also called Peptide No 161) [5T4 9-mer peptide 161 LTCAYPEKM], for which the t½ half life in [14] amounted to 3.1 h; in [15] it was 3.7 h.

As for QTSYVFLGI (also called Peptide No 177) [5T4 9-mer peptide 177 QTSYVFLGI], the t½ half life came to 0.6 h in experiment [16] and 0.2 h in experiment [17].

In the case of VFLGIVLAL (also called Peptide No 179) [5T4 9-mer peptide 179 VFLGIVLAL], the t½ half life in experiment [18] worked out at 15 h.

Turning to LALIGAIFL (also called Peptide No 182) [5T4 9-mer peptide 182 LALIGAIFL], the values for the t½ half life in experiment [19] and in [20] were 3.2 h and 0.5 h, respectively.
